Assay [1] in a line: In vivo screening in E. coli #1363/#1730 with lactose as acceptor, sialyllactose identified by TLC. It is filed as cell-based, Escherichia coli BL21(DE3). The settings on record: 1.5 mM lactose, 72 to 96 hours, qualitative via TLC. The essentials: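 E. coli BL21(DE3) #1363/#1730 expressing sialyltransferases were grown at 30 °C in mineral salts medium with 2% glucose and induced with 0.3 mM IPTG. After 1 h, 1.5 mM lactose was added, plus 1.5 mM sialic acid for #1730, and incubation ran 72–96 h. Cell lysates were analysed by silica TLC with thymol staining.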

Assay [2] can be described thus: In vitro sialylation of LNT by protein extracts, LST-a/-b quantified by LC-MS/MS. In kind it is biochemical. To be noted: 5 mM LNT, 10 mM CMP-Neu5Ac, 16 hours, LC-MS/MS; relative quantity; n.d.: not detectable. The essentials:
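E. coli BL21(DE3) crude extracts overexpressing sialyltransferases (IPTG 0.3 mM, 12–16 h at 30 °C) incubated 16 h with 5 mM LNT and 10 mM CMP-Neu5Ac in 50 mM Tris-HCl pH 7.5, 5 mM MgCl2. LST-a and LST-b measured by HILIC LC-MS/MS, MRM in ESI negative mode, against commercial standards.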

B1: SiaT73: sialyltransferase of Haemophilus somnus 2336, acc. ACA31170, SEQ ID NO: 20 (protein, listed as Haemophilus somnus)
chain: MKYNIKIKAIVIVSSLRMLLIFLMLNKYHLDEVLFVFNEGFELHKKYKIKHYVAIKKKITKFWRLYYKLYFYRFKIDRIPVYGADHLGWTDYFLKYFDFYLIEDGIANFSPKRYEINLTRNIPVFGFHKTVKKIYLTSLENVPSDIRHKVELISLEHLWKTRTAQEQHNILDFFAFNLDSLISLKMKKYILFTQCLSEDRVISEQEKIAIYQHIIKNYDERLLVIKPHPRETTDYQKYFENVFVYQDVVPSELFELLDVNFERVITLFSTAVFKYDRNIVDFYGTRIHDKIYQWFGDIKF
Consider B1, for which the “Production of sialyllactose in-vivo” value in assay [1] is reported as 3′-SL. Moreover, the “Relative efficacy of sialyltransferases regarding in-vitro production of sialyllacto-N-tetraoses: LST-a” value (“Relative efficacy … LST-a” for short) in assay [2] turned out to be 15.

B2: SiaT37: sialyltransferase of Campylobacter jejuni strain 81-176, acc. AAL09368, SEQ ID NO: 16 (protein, listed as Campylobacter jejuni)
chain: MKKVIIAGNGPSLKEIDYSRLPNDFDVFRCNQFYFEDKYYLGKKCKAVFYTPNFFFEQYYTLKHLIQNQEYETELIMCSNYNQAHLENENFVKTFYDYFPDAHLGYDFFKQLKEFNAYFKFHEIYFNQRITSGVYMCAVAIALGYKEIYLSGIDFYQNGSSYAFDTKQENLLKLAPDFKNDRSHYIGHSKNTDIKALEFLEKTYKIKLYCLCPNSLLANFIELAPNLNSNFIIQEKNNYTKDILIPSSEAYGKFSKNINFKKIKIKENVYYKLIKDLLRLPSDIKHYFKGK
For B2, in assay [1], the “Production of sialyllactose in-vivo” value is 3′-SL. In addition, in assay [2], the “Relative efficacy … LST-a” value is reported as 40.

B3: SiaT51: sialyltransferase of Photobacterium damselae subsp. damselae CIP 102761, acc. EEZ40509, SEQ ID NO: 32 (protein, listed as Photobacterium damsela)
chain: MKKILTVLSIFILSACNSDNTSLKETVSSNSADVVETETYQLTPIDAPSSFLSHSWEQTCGTPILNESDKQAISFDFVAPELKQDEKYCFTFKGITGDHRYITNTTLTVVAPTLEVYIDHASLPSLQQLIHIIQAKDEYPSNQRFVSWKRVTVDADNANKLNIHTYPLKGNNTSPEMVAAIDEYAQSKNRLNIEFYTNTAHVFNNLPPIIQPLYNNEKVKISHISLYDDGSSEYVSLYQWKDTPNKIETLEGEVSLLANYLAGTSPDAPKGMGNRYNWHKLYDTDYYFLREDYLDVEANLHDLRDYLGSSAKQMPWDEFAKLSDSQQTLFLDIVGFDKEQLQQQYSQSPLPNFIFTGTTTWAGGETKEYYAQQQVNVINNAINETSPYYLGKDYDLFFKGHPAGGVINDIILGSFPDMINIPAKISFEVLMMTDMLPDTVAGIASSLYFTIPADKVNFIVFTSSDTITDREEALKSPLVQVMLTLGIVKEKDVLFWADLPDCSSGVCIDK
For B3, in assay [1], the “Production of sialyllactose in-vivo” value was 6′-SL. For the same molecule, the “Relative efficacy of sialyltransferases regarding in-vitro production of sialyllacto-N-tetraoses: LST-b” value in assay [2] amounted to 10.

B4: SiaT32: sialyltransferase of Alistipes sp. AL-1, acc. WP_032134786, SEQ ID NO: 15 (protein, listed as Alistipes sp.)
chain: MALLSGTAACSDDEVSQNLIVINGGEHFLSLDGLARAGKISVLAPAPWRVTKAAGDTWFRLSATEGPAGYSEVELSLDENPGAARSAQLAFACGDAIVPFRLSQGALSAGYDSPDYYFYVTFGTMPTLYAGIHLLSHDKPGYVFYSRSKTFDPAEFPARAEVTTAADRTADATQAEMEAMAREMKRRILEINSADPTAVFGLYVDDLRCRIGYDWFVAQGIDSARVKVSMLSDGTGTYNNFYNYFGDAATAEQNWESYASEVEALDWNHGGRYPETRSLPEFESYTWPYYLSTRPDYRLVVQDGSLLESSCPFITEKLGEMEIESIQPYEMLSALPESSRKRFYDMAGFDYDKFAALFDASPKKNLIIIGTSHADDASARLQRDYVARIMEQYGAQYDVFFKPHPADTTSAGYETEFPGLTLLPGQMPFEIFVWSLIDRVDMIGGYPSTVFLTVPVDKVRFIFAADAASLVRPLNILFRDATDVEWMQ
As for B4, the “Production of sialyllactose in-vivo” value in assay [1] is reported as 3′-SL, 6′-SL. Moreover, the “Relative efficacy … LST-a” value in assay [2] came to 64.

B5: SiaT43: sialyltransferase of Bibersteinia trehalosi USDA-ARS-USMARC-189, acc. AHG84654, SEQ ID NO: 18 (protein, listed as Bibersteinia trehalosi)
chain: MEFCKMATTQKICVYLDYATIPSLNYILHFAQHFEDQETIRLFGLSRFHIPESVIQRYPKGVVQFYPNQEKDFSALLLALKNILIEVKQQQRKCEIELHLNLFHYQLLLLPFLSLYLDTQDYCHLTLKFYDDGSEAISALQELALAPDLAAQIQFEKQQFDELVVKKSFKLSLLSRYFWGKLFESEYIWFNQAILQKAELQILKQEISSSRQMDFAIYQQMSDEQKQLVLEILNIDLNKVAYLKQLMENQPSFLFLGTTLFNITQETKTWLMQMHVDLIQQYCLPSGQFFNNKAGYLCFYKGHPNEKEMNQMILSQFKNLIALPDDIPLEILLLLGVIPSKVGGFASSALFNFTPAQIENIIFFTPRYFEKDNRLHATQYRLMQGLIELGYLDAEKSVTHFEIMQLLTKE
For the molecule B5, the “Production of sialyllactose in-vivo” value in assay [1] is reported as 3′-SL. Besides, the “Relative efficacy … LST-a” value in assay [2] is given as 21.

B6: SiaT42: sialyltransferase of Actinobacillus capsulatus DSM 19761, acc. WP_018652686, SEQ ID NO: 25 (protein, listed as Actinobacillus capsulatus)
chain: MERIPQLQAVDIYIDFATIPSLSYFLHFLKHKHDHQRLRLFSLARFEMPQTVIEQYEGIIQFSRNVEHNVEQLLEQLQTILSQEGKQFELHLHLNLFHSFEMFLNLSPTYTKYKEKISKIVLHLYDDGSEGVMKQYQLQQSNSLAQDLASTKASLVSLFKNGEGAFSQIDLIRYVWNAVLETHYYLLSDHFLAHEKLQPLKIELGHYQLLNLSAYQYLSSEDLLWLKQILKIDAELESLMHKLTTQPVYFFSGTTFFNISFEDKQRLANIHAILIREHLDPNSQLFIGEPYLFVFKGHPNSPEINQALREYYPNAIFLPENIPFEILTLLGFSPQKIGGFASTIHVNSEQSKLAKLFFLTSTDEQERNRSDGYIKQYALAQAMLEMQLVSQEQVYYCSLSS
Consider B6, for which, in assay [1], the “Production of sialyllactose in-vivo” value is recorded as 3′-SL. Moreover, the “Relative efficacy … LST-a” value in assay [2] is reported as 3.

B7: SiaT41: sialyltransferase of Actinobacillus suis ATCC 33415, acc. AIJ32009, SEQ ID NO: 24 (protein, listed as Actinobacillus suis)
chain: MERTPQLQAVDIYIDFATIPSLSYFLHFLKHKHDDQRLRLFSLARFEMPQTLIEQYEGIIQFSRNVEHNVEPLLEQLQTILSQEGKQFELHLHLNLFHSFEMFLNLSPTYTQYKEKISKIVLHLYDDGSEGVMKQYQLQKSSSLVQDLAATKASLVSLFENGEGSFSQIDLIRYVWNAVLETHYYLLSDHFLLDEKLQPLKAELGHYQLLNLSAYQYLSSEDLLWLKQILKIDTELESLMQKLTAQPVYFFSGTTFFNISFEDKQRLANIHAILIREHLDPNSQLFIGEPYLFVFKGHPNSPEINQALREYYPNVIFLPENIPFEILTLLGFSPQKIGGFASTIHVNSEQSKLAKLFFLTSTDEQERQLSDGYIKQYALAQAMLEMQLVSQEQVYYCSLSS
Turning to B7, in assay [1], the “Production of sialyllactose in-vivo” value is given as 3′-SL. Also, in assay [2], the “Relative efficacy … LST-a” value was found to be 3.

B8: SiaT39: sialyltransferase of Alistipes shahii WAL 8301, acc. YP_007816735, SEQ ID NO: 23 (protein, listed as Alistipes shahii)
chain: MDDGTPSVSINGGTDFLSLDHLARSGKITVNAPAPWSVTLAPENYGQDEKPDWLTLSAEEGPAGYSEIDVTFAENPGPARSASLLFSCDGKTLAFTVSQSAGGTGFDAPDYYFYISVGTMPTLYSGLHLLSHDKPSYVSYERASTFDAAEFPDRAFVYPVADPTGHATNEELRAMSEAMKRRILEINAEDPTAVFGLWVDDLRCRLGYDWFVAQGIDSARVKVTMLSDGTATYNNFHNYFGDAATAEQNWNDYAAEVEALDWNHGGRYPETRAPEEFASYTWPYYLSTRPDYRLMLQNSSLMESSCPFIADRLAAMKMESVQPYELLTALPEASKQQFYRMAKFDYARFAGLFDLSPKKNLIIIGTSHSSAASEQQQAAYVERIIQQYGSDYDIFFKPHPADSSSAGYPDRFEGLTLLPGQMPFEIFVWALLDKIDMIGGYPSTTFISVPLDKVGFLFAADADGLVRPLNILFRDAANVEWIQ
In the case of B8, the “Production of sialyllactose in-vivo” value in assay [1] was 3′-SL. The “Relative efficacy … LST-a” value in assay [2] was 4.

B9: SiaT34: sialyltransferase of Pasteurella multocida PM70, acc. NC_002663, SEQ ID NO: 6 (protein, listed as Pasteurella multocida)
chain: MDKFAEHEIPKAVIVAGNGESLSQIDYRLLPKNYDVFRCNQFYFEERYFLGNKIKAVFFTPGVFLEQYYTLYHLKRNNEYFVDNVILSSFNHPTVDLEKSQKIQALFIDVINGYEKYLSKLTAFDVYLRYKELYENQRITSGVYMCAVAIAMGYTDIYLTGIDFYQASEENYAFDNKKPNIIRLLPDFRKEKTLFSYHSKDIDLEALSFLQQHYHVNFYSISPMSPLSKHFPIPTVEDDCETTFVAPLKENYINDILLPPHFVYEKLGVDKLAAALEHHHHHH
Take B9: the “Production of sialyllactose in-vivo” value in assay [1] is 3′-SL. Moreover, in assay [2], the “Relative efficacy … LST-a” value is listed as 2.34 × 10^3.

The record behind these values is US12692524B2, “Sialyltransferases and their use in producing sialylated oligosaccharides” (Chr. Hansen A/S, priority 2017, dated 2026).
